The values below are quoted from earlier work in publication PMC5000552.

For the data set, the target named is BCL6 (Homo sapiens) (UniProt P41182).

BCOR, sequence (Q6W2J9 whole entry): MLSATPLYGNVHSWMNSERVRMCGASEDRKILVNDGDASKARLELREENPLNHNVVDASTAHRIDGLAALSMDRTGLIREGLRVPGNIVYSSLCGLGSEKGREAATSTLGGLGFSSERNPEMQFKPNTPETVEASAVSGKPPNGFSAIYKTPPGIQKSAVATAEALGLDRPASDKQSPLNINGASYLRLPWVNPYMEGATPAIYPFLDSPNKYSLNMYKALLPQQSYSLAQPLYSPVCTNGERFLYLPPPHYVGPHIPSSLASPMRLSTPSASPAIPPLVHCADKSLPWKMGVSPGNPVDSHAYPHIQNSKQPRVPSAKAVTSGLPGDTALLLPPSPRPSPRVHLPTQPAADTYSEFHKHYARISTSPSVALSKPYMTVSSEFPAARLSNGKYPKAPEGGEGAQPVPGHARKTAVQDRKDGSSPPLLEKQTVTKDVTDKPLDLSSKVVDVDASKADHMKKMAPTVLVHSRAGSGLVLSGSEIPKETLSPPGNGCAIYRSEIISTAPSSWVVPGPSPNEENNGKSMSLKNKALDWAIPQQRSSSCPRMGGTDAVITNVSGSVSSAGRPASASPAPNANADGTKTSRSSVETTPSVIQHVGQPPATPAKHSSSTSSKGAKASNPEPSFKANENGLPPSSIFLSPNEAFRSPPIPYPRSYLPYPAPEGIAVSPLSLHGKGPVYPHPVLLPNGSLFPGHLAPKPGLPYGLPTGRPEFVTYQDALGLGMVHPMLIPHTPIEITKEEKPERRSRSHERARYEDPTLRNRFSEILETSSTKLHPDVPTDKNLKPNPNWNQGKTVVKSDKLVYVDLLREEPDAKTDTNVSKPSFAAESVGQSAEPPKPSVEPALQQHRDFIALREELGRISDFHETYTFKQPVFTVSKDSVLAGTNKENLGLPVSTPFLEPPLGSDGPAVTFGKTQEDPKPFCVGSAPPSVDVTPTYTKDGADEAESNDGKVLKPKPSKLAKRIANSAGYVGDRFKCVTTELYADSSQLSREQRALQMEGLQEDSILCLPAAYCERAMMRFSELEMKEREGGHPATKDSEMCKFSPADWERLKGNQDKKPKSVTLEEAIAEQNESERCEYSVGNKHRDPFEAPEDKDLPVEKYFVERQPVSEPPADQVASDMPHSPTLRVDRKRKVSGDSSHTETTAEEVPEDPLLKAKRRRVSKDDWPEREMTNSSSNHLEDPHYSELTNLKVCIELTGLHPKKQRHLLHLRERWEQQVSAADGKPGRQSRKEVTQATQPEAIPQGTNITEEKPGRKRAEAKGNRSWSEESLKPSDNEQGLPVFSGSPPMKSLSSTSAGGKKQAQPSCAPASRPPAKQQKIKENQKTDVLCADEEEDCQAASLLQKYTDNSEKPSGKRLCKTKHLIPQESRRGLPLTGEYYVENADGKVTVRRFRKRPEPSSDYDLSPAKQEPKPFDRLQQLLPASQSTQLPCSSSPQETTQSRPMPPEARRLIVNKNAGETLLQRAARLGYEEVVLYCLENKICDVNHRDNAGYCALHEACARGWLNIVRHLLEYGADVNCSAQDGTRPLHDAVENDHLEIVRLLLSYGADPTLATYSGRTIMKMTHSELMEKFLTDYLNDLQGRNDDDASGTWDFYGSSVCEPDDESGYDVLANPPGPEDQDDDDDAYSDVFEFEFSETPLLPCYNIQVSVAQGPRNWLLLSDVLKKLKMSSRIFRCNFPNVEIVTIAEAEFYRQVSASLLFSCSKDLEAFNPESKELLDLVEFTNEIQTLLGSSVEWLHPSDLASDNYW

Take BCOR (from UniProt Q6W2J9): the Kd is 20 µM.

The Kd is the equilibrium constant for the complex coming apart.
